Measurements: patent publication US8993725B2, “Notch-based fusion proteins and uses thereof” (The Trustees of Columbia University in the City of New York, priority 2004, dated 2015)

Legend:
MMP9 = experiment: Gelatin zymography of conditioned medium of transduced HUVEC, MMP-9; type: cell-based, Human; conditions: co-transduction with Ad-VEGF; fibrin gel
Description: (§1) FIGS. 24A-B show gelatin zymography analysis of MMP-9 and MMP-2 activity stimulated by VEGF in HUVEC. […] Transduced HUVEC were cultured on fibrin gel on the indicated day (i.e. D2, D4, D6, D8). Similar results were also obtained by using collagen gel, although induction of MMP-9 was stronger on fibrin gel than collagen gel (data not shown). […] HUVEC were transduced with Ad-N1ECDFc at the indicated doses and condition medium was collected from HUVEC cultured on collagen gel at day 4. FIGS. 24C-D show up-regulation of MMP-9 and MT1-MMP with Notch signaling. HUVEC were transduced with either Ad-LacZ or Ad-N1IC at 40 MOI. Numbers show PCR cycles. […] HUVEC were transduced with Ad-VEGF in the absence or presence of co-transduction of Ad-N1ECDFc at 40 MOI each. Ad-LacZ was co-transduced to make the same total amount of adenovirus at 80 MOI.
(§2) Requisition of MMPs for angiogenic sprouting has been established by synthetic MMP inhibitors (16). GM6001 is one broad inhibitor against MMPs including MMP2, MMP9 and MT1-MMP (18).

HUVEC = HUVEC proliferation (CCK-8 kit); type: cell-based, Human; conditions: complete medium, 4 days
Description: These Figures show proliferation of Ad-VEGF165-transduced HUVEC. HUVEC were transduced with Ad-VEGF165 at the indicated dosages. Ad-LacZ was also co-infected to make the same total amount of adenovirus at a MOI of 40 pfu/cell. HUVEC were suspended in SFM supplemented with 1% FBS and then plated at 1×10^4 cells/well in 24-well multi-well plates with 0.4 ml of medium. After 4 days, cell numbers were determined using the CCK-8 kit and the results are indicated as the ratio of cell numbers determined to the number of control cells, which were transduced with Ad-GFP at a MOI of 40 pfu/cell. […] Ad-VEGF-transduced HUVEC were treated with SU5416 at the indicated dosages.
These Figures show the effect of alteration of Notch signaling on cell proliferation. The cells were transduced with the indicated adenoviruses. Ad-GFP was also co-infected to make the same total amount of adenovirus at a MOI of 60 pfu/cell. After 4 days, cell numbers were determined using the CCK-8 kit and results are indicated as the ratio of cell numbers determined to the number of control cells, which were transduced with AD-GFP at MOI of 60 pfu/cell. […] Transduced HUVEC were suspended in complete medium and then plated at 1×10^4 cells/well in 24-well multiwell plates with 0.4 ml of indicated medium (□: Ad-N1IC; ▪: Ad-N1ECDFc). […]

MMP2 = experiment: Gelatin zymography of conditioned medium of transduced HUVEC, MMP-2; type: cell-based, Human; conditions: co-transduction with Ad-VEGF; collagen gel, day 4
Description: as §1, §2

MMP9 mRNA = experiment: RT-PCR analysis of MMP9 expression in Ad-VEGF-HUVEC; type: cell-based, Human
Description: as §1, §2

[1] = tested on: Notch1 signaling activated by Notch ligands (Jagged1, Delta-like 1, Delta-like 4); experiment: Co-culture assay of ligand-induced Notch signaling (CSL-luciferase reporter); type: cell-based; conditions: for Inhibition of ligand-induced Notch1 signaling (CSL reporter activity): fusion protein expression vector co-transfected into Notch1-expressing HeLa, co-culture with ligand-expressing 293 (Bosc) cells
Description: Notch and Notch responsive transcriptional reporters are expressed in a “Notch-responsive” cell, HeLa. Notch ligands, Jagged-1, Delta-like 1, or Delta-like 4 are expressed in a “ligand-presenting” cell, 293. Expression is mediated by transfection of individual cell populations, cells are co-cultured, and then assayed for Notch-dependent reporter activity.
To determine ligand-induced Notch signaling, co-culture assays were performed using HeLa and 293-derived Bosc cells. Transient transfections were performed by calcium phosphate precipitation. Hela cells plated 1-day prior in 10-cm plates at 1.5×10^6 were transfected with 333 ng of pBOS Notch1, 333 ng pGA981-6, and 83 ng pLNC lacZ with either 666 ng pCMV-Fc or pHyTC-N1ECDFc (333 ng for ×1, 666 ng for ×2). Bosc cells plated 1-day prior in 10-cm plates at 4×10^6 were transfected with either 680 ng pHyTc-Jagged1, pHyTc-Dll1, pHyTc-Dll4, or pHyTc-x (empty vector). One day after transfection, the cells were co-cultured in triplicate (HeLa:Bosc, 1:2) on 12-well plates for 24 hours. Cells were harvested and luciferase activity was determined 2-days post-transfection using the Enhanced Luciferase assay kit (BD PharMingen), and β-galactosidase activity was determined using the Galacto-Light Plus kit (PE Biosystems). All assays were performed in a Berthold dual-injection luminometer.
An in vitro co-culture system (FIG. 3) with ligands expressed on one cell and Notch receptor activation scored in another cell was used to measure transcriptional activation of the Notch pathway. […] The N1ECD/Fc expression vector was co-transfected at different ratios with full-length Notch1 and the CSL-luciferase reporter in HeLa cells, followed by co-culture with ligand expressing 293 cells.

MT1-MMP mRNA = experiment: RT-PCR analysis of MT1-MMP expression in Ad-VEGF-HUVEC; type: cell-based, Human
Description: as §1, §2

[2] = tested on: Notch signaling (CBF1 promoter activity) in HUVEC; experiment: VEGF-induced Notch signaling, CBF1 promoter / CSL-luciferase reporter activity in HUVEC; type: cell-based, Human; conditions: for Inhibition of VEGF-induced CBF1 promoter activity: 40 MOI for each adenovirus; for Effect on VEGF-induced CBF1 promoter / CSL luciferase activity: co-infection (co-transduction) with Ad-VEGF in HUVEC
Description: To determine VEGF-induced Notch signaling, HUVEC which were infected with adenovirus were used. HUVEC plated 1-day prior in 6 well plates at 8.0×10^5 were infected with either Ad-LacZ as control or Ad-VEGF at indicated m.o.i. in the presence or absence of Ad-N1ECD/Fc. Two days after infection, infected HUVEC were re-seeded into 24-well plate at 1.5×10^5 cell in triplicate and cultured for 24 hours, and then transfected with 12.5 ng pRL-SV40 (Promega) and 137.5 ng pGA981-6 using Effectene transfection reagent (Qiagen). Cells were harvested either 1 or 2 days post-transfection and luciferase activity was determined by using the Dual-Luciferase® Reporter Assay System (Promega).
One can measure Notch signaling function by measuring transcriptional activity of CBF1 promoter, which is activated by binding of Notch-IC to CBF1. We measured CBF1 promoter activity in HUVEC which was infected with adenovirus encoding VECF-165 at different MOI (FIG. 6). Induction of CBF1 promoter was clearly detected in Ad-VEGF-infected HUVEC, compared to Ad-LacZ-infected cells in the MOI dependent manner. […] Thus VEGF induced Notch signaling activity.

[3] = Ad-LacZ infected HUVEC, data not shown
[4] = co-transduction with Ad-VEGF, 40 MOI each

B1: N1ECDFc: Notch-based fusion protein or decoy: extracellular domain of Notch1 containing the EGF-repeats fused to the Fc portion of an antibody (protein)
chain: ARGLRCSQPSGTCLNGGRCEVANGTEACVCSGAFVGQRCQDPSPCLSTPCKNAGTCYVVDHGGIVDYACSCPLGFSGPLCLTPLANACLANPCRNGGTCDLLTLTEYKCRCPPGWSGKSCQQADPCASNPCANGGQCLPFESSYICGCPPGFHGPTCRQDVNECSQNPGLCRHGGTCHNEIGSYRCACRATHTGPHCELPYVPCSPSPCQNGGTCRPTGDTTHECACLPGFAGQNCEENVDDCPGNNCKNGGACVDGVNTYNCRCPPEWTGQYCTEDVDECQLMPNACQNAGTCHNSHGGYNCVCVNGWTGEDCSDNIDDCASAACFQGATCHDRVASFYCECPHGRTGLLCHLNDACISNPCNEGSNCDTNPVNGKAICTCPRGYTGPACSQDVDECALGANPCEHAGKCLNTLGSFECQCLQGYTGPRCEIDVNECISNPCQNDATCLDQIGEFQCICMPGYEGVYCEINTDECASSPCLHNGRCVDKINEFLCQCPKGFSGHLCQYDVDECASTPCKNGAKCLDGPNTYTCVCTEGYTGTHCEVDIDECDPDPCHIGLCKDGVATFTCLCQPGYTGHHCETNINECHSQPCRHGGTCQDRDNYYLCLCLKGTTGPNCEINLDDCASNPCDSGTCLDKIDGYECACEPGYTGSMCNVNIDECAGSPCHNGGTCEDGIAGFTCRCPEGYHDPTCLSEVNECNSNPCIHGACRDGLNGYKCDCAPGWSGTNCDINNNECESNPCVNGGTCKDMTSGYVCTCREGFSGPNCQTNINECASNPCLNQGTCIDDVAGYKCNCPLPYTGATCEVVLAPCATSPCKNSGVCKESEDYESFSCVCPTGWQGQTCEIDINECVKSPCRHGASCQNTNGSYRCLCQAGYTGRNCESDIDDCRPNPCHNGGSCTDGVNAAFCDCLPGFQGAFCEEDINECATNPCQNGANCTDCVDSYTCTCPTGFNGIHCENNTPDCTESSCFNGGTCVDGINSFTCLCPPGFTGSYCQYDVNECDSRPCLHGGTCQDSYGTYKCTCPQGYTGLNCQNLVRWCDSAPCKNGGKCWQTNTQYHCECRSGWTGFNCDVLSVSCEVAAQKRGIDVTLLCQHGGLCVDEEDKHYCHCQAGYTGSYCEDEVDECSPNPCQNGATCTDYLGGFSCKCVAGYHGSNCSEEINECLSQPCQNGGTCIDLTNTYKCSCPRGTQGVHCEINVDDCHPPLDPASRSPKCFNNGTCVDQVGGYTCTCPPGFVGERCEGDVNECLSNPCDPRGTQNCVQRVNDFHCECRAGHTGRRCESVINGCRGKPCRNGGVCAVASNTARGFICRCPARFEGATCENDARTCGSLRCLNGGTCISGPRSPTCLCLGSFTGPECQFPASSPCVGSNPCYNQGTCEPTSESPFYRCLCPAKFNGLLCHILDYSFTDLGPG
modifications: left off: a dimerising Fc or GST
notes: Notch-based fusion protein or decoy: extracellular domain of Notch1 containing the EGF-repeats fused to the Fc portion of an antibody
Which “VEGF-stimulated induction and activation of MMP9 (gelatin zymography)” value (MMP9) does the source give for B1 here?
The value was “inhibition of both induction and activation of MMP9”.

What about the “Proliferation of transduced HUVEC” value (HUVEC) of the same molecule?
Its value is “did not clearly alter proliferation of HUVEC”.

And the “VEGF-stimulated activation of MMP2 (gelatin zymography)” value (MMP2)?
The value was “inhibition”.

What about the “Expression of MMP9, fusion protein adenovirus alone” value (MMP9 mRNA; [3]) of the same molecule?
Its value is “did not affect expression of either MMP9 or MT1-MMP”.

What about the “VEGF-induced up-regulation of MMP9 mRNA” value (MMP9 mRNA; [4]) of the same molecule?
The value was “this induction was inhibited”.

And the “Concentration-dependency of inhibition of Notch1 signaling” value ([1]; 2:1 versus 1:1 ratio of N1ECD/Fc to Notch1 vector)?
The value was “a 2:1 ratio of N1ECD/Fc to Notch1 was more effective in inhibiting signaling than a 1:1 ratio”.

And the “Block of signaling by individual Notch ligands” value ([1]; Jagged1, Delta-like 1 or Delta-like 4 expressing cells)?
The value was “could block signaling mediated by Jagged1, Delta-like 1 or Delta-like 4”.

And the “Inhibition of ligand-induced Notch1 signaling (CSL reporter activity)” value (“Inhibition … (CSL reporter activity)” for short) [1]?
Its value is “inhibition of Notch signaling”.

And the “Inhibition … (CSL reporter activity)” value ([1]; listed as N1ECD/Fc)?
The value was “activation of Notch1 signaling by Notch ligands was reduced”.

And the “Inhibition … (CSL reporter activity)” value ([1]; listed as Notch1ECD/Fc)?
The value was “functions to block ligand-dependent Notch signaling”.

And the “Inhibition … (CSL reporter activity)” value ([1]; listed as Notch-based fusion protein)?
The value was “these inductions were inhibited”.

And the “Expression of MT1-MMP, fusion protein adenovirus alone” value (MT1-MMP mRNA; [3])?
Its value is “did not affect expression of either MMP9 or MT1-MMP”.

And the “VEGF-induced up-regulation of MT1-MMP mRNA” value (MT1-MMP mRNA; [4])?
The value was “this induction was inhibited”.

What about the “Inhibition of VEGF-induced CBF1 promoter activity” value ([2]; 24 hr after reporter gene transfection) of the same molecule?
Its value is 60%.

And the “Inhibition of VEGF-induced CBF1 promoter activity” value ([2]; 48 hr after reporter gene transfection)?
Its value is 90%.

What about the “Effect on VEGF-induced CBF1 promoter / CSL luciferase activity” value ([2]; listed as Ad-N1ECDFc) of the same molecule?
Its value is “clearly decreased CSL luciferase activity induced by VEGF”.

What about the “Effect on VEGF-induced CBF1 promoter / CSL luciferase activity” value ([2]; listed as Ad-Notch fusion protein) of the same molecule?
Its value is “clearly reduced activation of CBF1 promoter activity”.

And the “Effect on VEGF-induced CBF1 promoter / CSL luciferase activity” value ([2]; listed as Ad-Notch-based fusion protein)?
Its value is “clearly reduced activation of CBF1 promoter activity”.

And the “MOI dependence of the inhibitory activity on VEGF-induced CBF1 promoter activity” value ([2]; co-infection with Ad-VEGF in HUVEC)?
The value was “dependent on MOI”.
